# Assay results taken from article PMC8834548, “Epiregulin as an Alternative Ligand for Leptin Receptor Alleviates Glucose Intolerance without Change in Obesity” (Cells, 2022).
# T1: mouse recombinant leptin receptor (LepR) protein (mouse, UniProt P48356 22-839)
# T1 construct: leptin receptor, mouse, recombinant, R&D systems 497-LR/CF; also called recombinant LepR; source: bought: R&D systems, 497-LR/CF
# T1 sequence (looked up): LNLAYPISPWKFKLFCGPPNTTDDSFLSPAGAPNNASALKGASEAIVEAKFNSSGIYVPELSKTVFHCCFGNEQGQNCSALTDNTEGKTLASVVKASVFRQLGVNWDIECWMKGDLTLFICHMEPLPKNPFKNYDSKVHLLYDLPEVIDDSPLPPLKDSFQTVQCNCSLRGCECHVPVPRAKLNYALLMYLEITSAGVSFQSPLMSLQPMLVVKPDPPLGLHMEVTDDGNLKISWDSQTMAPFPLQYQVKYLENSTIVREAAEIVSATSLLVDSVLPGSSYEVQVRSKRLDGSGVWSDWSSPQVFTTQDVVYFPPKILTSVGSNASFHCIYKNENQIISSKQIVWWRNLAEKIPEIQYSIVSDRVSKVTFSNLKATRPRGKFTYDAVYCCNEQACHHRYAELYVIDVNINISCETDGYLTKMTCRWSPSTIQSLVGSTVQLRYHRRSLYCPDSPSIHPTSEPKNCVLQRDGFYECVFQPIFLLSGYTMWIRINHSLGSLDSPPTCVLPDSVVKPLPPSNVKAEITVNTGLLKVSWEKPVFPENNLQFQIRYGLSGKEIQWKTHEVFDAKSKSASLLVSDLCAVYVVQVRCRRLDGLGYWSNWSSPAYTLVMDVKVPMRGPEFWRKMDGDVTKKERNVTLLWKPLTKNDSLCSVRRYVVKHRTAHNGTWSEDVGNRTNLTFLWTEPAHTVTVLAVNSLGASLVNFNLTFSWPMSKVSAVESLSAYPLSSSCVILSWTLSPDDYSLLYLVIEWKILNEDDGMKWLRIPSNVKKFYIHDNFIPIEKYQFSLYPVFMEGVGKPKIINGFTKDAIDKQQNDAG
# Legend:
# [1] = target: mouse recombinant leptin receptor (LepR) protein (mouse) (UniProt P48356); experiment: quartz crystal microbalance with dissipation (QCM-D); LepR (1.6 pM in PBS) laid as a monolayer on a gold quartz sensor, then mouse leptin or mouse EREG (1.6 fM) added; PBS pH 7.1-7.5, 25 C, flow 50 uL/min; frequency, dissipation and modelled film thickness
# [2] = target: leptin receptor (LepR), endogenous in mouse adipose tissue (mouse (endogenous in Lep^ob adipose tissue)) (UniProt P48356)
# [3] = target: T1, mouse recombinant leptin receptor …; experiment: quartz crystal microbalance with dissipation (QCM-D); LepR (1.6 pM in PBS) laid as a monolayer on a gold quartz sensor, then mouse leptin or mouse EREG (1.6 fM) added; PBS pH 7.1-7.5, 25 C, flow 50 uL/min; frequency, dissipation and modelled film thickness; conditions: both partners purified
thickness of the LepR film after EREG was added (23 nm before) [1],FD-glucose uptake in 3T3-L1 preadipocytes against the concentration of mouse EREG [2],binding result [3],Molecule
20 nm,26 nM,,mouse recombinant EREG (ligand)
,,binds,"mouse leptin (ligand, UniProt P41160 22-167, looked up, leptin, mouse, Crystal Chem 90030-B; source: bought: Crystal Chem, 90030-B) VPIQKVQDDTKTLIKTIVTRINDISHTQSVSAKQRVTGLDFIPGLHPILSLSKMDQTLAVYQQVLTSLPSQNVLQIANDLENLRDLLHLLAFSKSCSLPQTSGLQKPESLDGVLEASLYSTEVVALSRLQGSLQDILQQLDVSPEC"
